The values below come from the DeepSol protein solubility set.

The data set is described as follows: soluble on expression in E. coli; label from the status in PepcDB or PDB records.
In the case of “MSLTIFDNYEVWFVIGSQHLYGPETLRQVTQHAEHVVNALNTEAKLPCKLVLKPLGTTPDEITAICRDANYDDRCAGLVVWLHTFSPAKMWINGLTMLNKPLLQFHTQFNAALPWDSIDMDFMNLNQTAHGGREFGFIGARMRQQHAVVTGHWQDKQAHERIGSWMRQAVSKQDTRHLKVCRFGDNMREVAVTDGDKVAAQIKFGFSVNTWAVGDLVQVVNSISDGDVNALVDEYESCYTMTPATQIHGKKRQNVLEAARIELGMKRFLEQGGFHAFTTTFEDLHGLKQLPGLAVQRLMQQGYGFAGEGDWKTAALLRIMKVMSTGLQGGTSFMEDYTYHFEKGNDLVLGSHMLEVCPSIAAEEKPILDVQHLGIGGKDDPARLIFNTQTGPAIVASLIDLGDRYRLLVNCIDTVKTPHSLPKLPVANALWKAQPDLPTASEAWILAGGAHHTVFSHALNLNDMRQFAEMHDIEITVIDNDTRLPAFKDALRWNEVYYGFRREGHHHHHH”, the “soluble on expression in E. coli” value is “soluble”.
“MSLTIKLITFDLDDTLWDTAPVIVSAEATLRQWLTEHAPNLGGVPVEHLWAIRERVLLAQPNLKHRISALRRQVLFHALEEAGYDHAQANQLADQSFEVFLHARHQLEIFPEVQPTLEALANHFALGVVTNGNADVRRLGLADYFKFALCAEDIGIAKPDARLFHEALQRGEATADTAVHIGDHPGDDIAGAQQAGLRAIWFNPNGKTWEAEHAPDAEIRSLNELPGLLARWHRGAEGHHHHHH”: the “soluble on expression in E. coli” value is recorded as “soluble”.
Consider “MSLTITRIETIPMVAPLAREFRGSHYHMTHRATIVTRVHTDAGIIGEAYTGDEHETMFDIDRIIHEELAPTLIGQDAMAIERLWDSGYKVTFDILRDRRLGLVALAAVNTAIWDAVGKALKMPLWKLWGGYRNELPMIAIGGYYGEPLGSIADEMHNYQELGLAGVKFKVGGLSAAEDAARITAAREAAGDDFIICIDANQGYKPAVAVDLSRRIADLNIRWFEEPVEWHNDKRSMRDVRYQGSVPVCAGQTEFSASGCRDLMETGAIDVCNFDSSWSGGPTAWLRTAAIATSYDVQMGHHEEPQVSTHLLASQPHGTIAECFHPDRDPFWWNMITNRPKLNNGTLTLSDRPGLGWDLNWDYIDQYRVSKDEGHHHHHH”, for which the “soluble on expression in E. coli” value is listed as “soluble”.
Under “MSLTKEPILELADMSDFEQLIRQHPEKIIILDFYATWCGPCKAIAPLYKELATTHKGIIFCKVDVDEAEDLCSKYDVKMMPTFIFTKNGDAIEALEGCVEDELRQKVLEHVSAQ” stands “not soluble”; under “MSLTKIVIIGGVAGGASAAARARRLSEDAEIIMFERGPYVSFANCGLPYHIGGDIKERSNLLLQTPESFLARFNVDVRTMNEVLRINRAAKTITVRNLLDQSEYDENYDFLLLSPGAGPVIPPIPGIQNPLTHSLRNIPDMDKIIQTLQMNKPEHATVVGGGFIGLEMMEAFHHLGIKTTLIEMADQVMTPVDREMAGFAHAEIRAKGIDLRLGAALKSVEYRPAATLPSAESGESLEHKHVEGELDLLLSNGDTLTTDILIMAIGVRPETKLAAEAGLQLGELGGIWVNEQMQTSDPAIYAVGDAVEEKDFVTGKQTLVPLAGPANRQGRMAADNMLGRNESYQGTQGTAICKIFDLAVASTGKNEKQLKREGIAYEKVYVHTASHASYYPGAEVVSFKMLFDPQTGKIFGAQAVGKDGIDKRIDVMAVAQRAGMTVEQLQHLELTYAPPFGSAKDVINQAAFVATNLIKGDAKAIHFDEIDNLTDEQVLLDVRNPMELQNMGYLPGAINIPVDQLRQHMNELPKDKEIVIYCQVGLRGNVAYRQLVNNGFKARNLIGGYRTYKFAKAEGHHHHHH”, “soluble”; under “MSLTKMVIKGGTVYDPLNGIDGEVMDIFIKDGKIVENLSDGELKDAKILDVKGKVVMPGGVDSHTHVAGPKVNTGRVMCPEDHYKSPLKKTHNTHCGSGEIVPSTYAQGYKYSSMGYTTLFEAAVPPMLARHTHEEFKVMPIVDKAGYLLLGSNWFVMKYLKEGNVEKAAAYVAWALETTKTFGIKLVNPAGVESWAWGKNVHSLEEENIHFGISSGEVIRGLGAVNEMLGLPMSIHLHANNLGHPGNWEFTIDTMDVAKNIKPAVNKQGYDNGVKTKYSHEREQSLYMTHMQFHSFGGTSWKDFESKAEDISNYVNKSDHVVMDSGSVAFGKAICMTGDGPGLYDLAVMNGQKWANVDVELECGSGVVPFVYSMKNKVHSVQWAMGIELLLLTDPRKVIMTTDNPNAGPFTKYPQLITWLMSKKAREDTMKLCHKWAGERSGLAGNDKELSLYDLATVTRATPAKAIGMGHRKGHLSPGADADITVYDISPDYNSSDYAAIEKAFTTALFTIKDGEVITKDGRIIETPKGRTYYVDAKFNEEIQKEIIADVQDWFRRYYSIGFSNYPVPDLYLTKPTPLNINVREGHHHHHH”, “not soluble”.
In the case of “MSLTKNKFDNRADKLGESWDLLNKEGRKIGLKHRGEPFKPGEWHSLVNASIFNYQHEILMQQRSFNKIGRPGEWDFETGGSVLASEDSLTAIKREVKEEVGLELNFSEENFVETFRNWPVFDNWYVIKADLSIKDIRIQKSELEQAKFMPFDQAIKYLSSNYLPYLLKAYKKLFGGENEGHHHHHH”, the “soluble on expression in E. coli” value is recorded as “not soluble”.
Under “MSLTKSYAEEQKRSVSEKLLKEKKLSLILDLDGTIVFTNPELCIPLESEEEPITPEQGFYFEIPEQNAKVFIRFRDGIVTFMEKVSKLYDIHVVTLGQKEYAFAIVNAINKLRNIPFITGDLVTAEDCSSVIVCDEKDTNDGLIDREETNERRSVKRSIPTMGKEEMQVIVDDRIDVWDNKNVVQICEYVPSTNQVDTELVRVTEVLQNIYTKFYDEHIEDVKEILHLFRKKILENKNLYFNREGHHHHHH” stands “soluble”; under “MSLTKTVLILTAAIDLDGGDWFSPCWERVTRSMALGKAGDIIHGCVPGAALAIREEKPIAAGRSAQNRRGSFREQEDGSYVLLAGRIFNRTDLLRRFDLKQGMDDADLYAAVSARMGEAAYRAIVGDYAALQWFPQRRSLRLARSGTSNMPLHVWRDGSRIVISSLPGPILASGVPARINDDRVADELLLFSPDGRTSFYAGMHRVPGGGEEVHDPSGFKARRLWSVKDAPEIRLRRDEDYVEALDVLFDEAVSATMDGSSAPGILLSGGFDSQTVASYAVKRLPAGRRLQAFTSVPMQGWTPPPRPGIFGDESAHVRALCAMYPQIEPHFIEAADFRYGERGHRQFLVGGWPVFNEMNAHWSHASLEQAADLGCDLMLTGDLGNSGFSYDGLTGYPTWLREGQWFRLLREIGKSDDPRPFWRKLISLAVMPHVPVRWKRKMDRHRPWRPSAFATWCGMREDFARESGVLDRAEAGGHDIDFYDIPSARTWRANVVDSLNDGAPEIYLGYQLLYGVPMRDPTAYLPLLEFCAGIPDEQYLRDGQTRWLARRLMQGRVPEMVRLENRIGAQSSDWPQRFARDREDLIAEMERMKADERLAKIFDFERLAANLREWDGSDRPESRSNFKINAAVGRAMVSARFVSHVEGRNVGEGHHHHHH”, “soluble”.
Under “MSLTLKTTEDLFQQSLHEYTITHAIEDKNVLRFHVDYYKPDGKSTPKPGETLAKRAVVDAILSKHDAATGGRRFNAILATASINDAIGYFGLFKTAQAEKQRVEPGYVPLNIAAVFSPPSDVSADVRQLQEDLPQEQEDNKKDSDAKKAALKAIIGDYNTRFGTNHRIEEFDAYYQDVQQRIKDQQFPNADLPDKGREKLDIVIVVDMLLTGFDSKYLNTLYVDKNLKYHGLIQAFSRTNRVLNDTKPYGNILDFRGQQKEVDAAIALFSGAKADKAREIWLVDTAPVVIDKLKEARGSLDSFLASQGLGGKPEDIANLKGTAAKVAFIKHFKDVQKLQTQLDQYTDLTAEQQAQVEAILPKDELRSFRGQYLQKAEELRADQKKAGEGHHHHHH” stands “soluble”; under “MSLTLRIALFGAGRIGHVHAANIAANPDLELVVIADPFIEGAQRLAEANGAEAVASPDEVFARDDIDGIVIGSPTSTHVDLITRAVERGIPALCEKPIDLDIEMVRACKEKIGDGASKVMLGFNRRFDPSFAAINARVANQEIGNLEQLVIISRDPAPAPKDYIAGSGGIFRDMTIHDLDMARFFVPNIVEVTATGANVFSQEIAEFNDYDQVIVTLRGSKGELINIVNSRHCSYGYDQRLEAFGSKGMLAADNIRPTTVRKHNAESTEQADPIFNFFLERYDAAYKAELATFAQGIRDGQGFSPNFEDGVIALELANACLESAQTGRTVTLNPANEGHHHHHH”, “soluble”.
The result for “MSLTMKDVALEAGVSVGTVSRVINKEKGIKEVTLRKVQRAIKTLDYIPDNYARGMKKNRTETIALIIPSIWHPFFSEFAYHVEKELLKYNYKLFICNADSDSQNEIEYIEMLKQNKVDGIIGITYSDIDKYILSDLPFVSIDRHFSENVCYVTSANYKGGQTAAEELVRRDNKHLAFIGSINMYENETILRSKGFREKAKELGVDVYNFEMKEPLINPEDQIRIFLQSHKEIDGIFTINDMMALRVISVMKELGKIAPDDYQIIGFDGLKTSVDQSYLVSTIVQDIGMMAKESVAMILKMIKREEILEKRIVIPTYFWGDKTTKKEGHHHHHH” reads “soluble”.
Take “MSLTNSSKSFTKFMAASAVFTMGFLSVPTAGAEQTNQIANKPQAIQWHTNLTNERFTTIAHRGASGYAPEHTFQAYDKSHNELKASYIEIDLQRTKDGHLVAMHDETVNRTTNGHGKVEDYTLDELKQLDAGSWFNKKYPKYARASYKNAKVPTLDEILERYGPNANYYIETKSPDVYPGMEEQLLASLKKHHLLNNNKLKNGHVMIQSFSDESLKKIHRQNKHVPLVKLVDKGELQQFNDQRLKEIRSYAIGLGPDYTDLTEQNTHHLKDLGFIVHPYTVNEKADMLRLNKYGVDGVFTNFADKYKEVIKEGHHHHHH”: the “soluble on expression in E. coli” value is given as “soluble”.
The result for “MSLTNVVAYIRVSTKSQGDSGLGLEAQRDYIQRAAQANDWNVVGEFVDVVSGKLALEDRPEGAKALTMCKQHNAQLLVAKLDRLSRSVLHIAQLMEQVDFKVATMPQADKFQLHLFAALAQQEREFIATRTKEALASLQRRADAGDAVAQQKVANRAEAQAKGRAVADITAANNIRMSKINTYQTNIEPHLKSCLHDKISEGHHHHHH” reads “soluble”; that for “MSLTPYNVARKRGELKYLLLTESQFDGGMMLRFVLRSETKLTQLRAALPWLRAQLPQLRVITANIQPVHMAIMEGETEIYLTDQQALAERFNDVPLWIRPQSFFQTNPTVASRLYATARDWVGQLPVRHMWDLFCGVGGFGLHCATPQMQLTGIEIAPEAIACAKQSAAELGLTRLHFQALDSTQFATAQGETPDLVLVNPPRRGIGKPLCDYLAQMAPRFIIYSSCNAQTMAQDIRHLPNYRIQRVQLFDMFPHTAHYEVLALLRRSEGHHHHHH”, “not soluble”; that for “MSLTQVRQTDSGDSLETARPADLLVLLDSLRQREATLNAEVIDLQNTLNALQASGNTDQAALESAQARLAALSILVGAVGATGPGVMITIDDPGPGVAPEVMIDVINELRAAGAEAIQINDAHRSVRVGVDTWVVGVPGSLTVDTKVLSPPYSILAIGDPPTLAAAMNIPGGAQDGVKRVGGRMVVQQADRVDVTALRQPKQHQYAQPVKEGHHHHHH”, “soluble”.
For the sequence “MSLTRKKEDPGHSGRADRAARLSKASTHHAQHRQQPQRTRHERPRHAGHVAGKLYQLEVSEALISSVTDAVLDNVHAWQSRPLAAQRAENQRLIPD”, the “soluble on expression in E. coli” value is listed as “soluble”.
Under “MSLTRPPALSDVPDAAALPAVTAVEAMHCRIPFPSPLQLGKVHMTHRDYVLVRLLLADGGTGHAIGFERGMPLLDLVTRVAPFYVGRSPAMRAAARRAAEAATPPARAVLMRGISLLDIAMWDALARNKGLPLWALLGGARRRVPVMPVVGYGASAPAVAEQCRDLAGRGFRTVKVMIDGSDLAADAALLDAVRKALPDEVAFGIDAHWSWTTIADAMPTCRRAEELGAIFIEDPFLPQQWRTIAELQTQLRVPLAVGEDVIDRYGFRDLAEAARILRVDASVSGGVTGAIEALHLATIMDREVIPHVFPALHGQLAAAFPAARCVEMILPEVGADPVDRLFAEEARIEGGDLLVSETPGAAIAFDWDKARDFALRSERVGEGHHHHHH” stands “soluble”.
